Measurements taken from PMC2873993, “Comparative Therapeutic Effects of Velaglucerase Alfa and Imiglucerase in a Gaucher Disease Mouse Model” (PLoS ONE, 2010).

B1: velaglucerase alfa (protein)
chain: ARPCIPKSFGYSSVVCVCNATYCDSFDPPTFPALGTFSRYESTRSGRRMELSMGPIQANHTGTGLLLTLQPEQKFQKVKGFGGAMTDAAALNILALSPPAQNLLLKSYFSEEGIGYNIIRVPMASCDFSIRTYTYADTPDDFQLHNFSLPEEDTKLKIPLIHRALQLAQRPVSLLASPWTSPTWLKTNGAVNGKGSLKGQPGDIYHQTWARYFVKFLDAYAEHKLQFWAVTAENEPSAGLLSGYPFQCLGFTPEHQRDFIARDLGPTLANSTHHNVRLLMLDDQRLLLPHWAKVVLTDPEAAKYVHGIAVHWYLDFLAPAKATLGETHRLFPNTMLFASEACVGSKFWEQSVRLGSWDRGMQYSHSIITNLLYHVVGWTDWNLALNPEGGPNWVRNFVDSPIIVDITKDTFYKQPMFYHLGHFSKFIPEGSQRVGLVASQKNDLDAVALMHPDGSAVVVVLNRSSKDVPLTIKDPAVGFLETISPGYSIHTYLWRRQ
modifications: N-linked oligosaccharides with higher α-mannosyl content (predominant number of mannoses is 9)
B2: imiglucerase (protein)
chain: ARPCIPKSFGYSSVVCVCNATYCDSFDPPTFPALGTFSRYESTRSGRRMELSMGPIQANHTGTGLLLTLQPEQKFQKVKGFGGAMTDAAALNILALSPPAQNLLLKSYFSEEGIGYNIIRVPMASCDFSIRTYTYADTPDDFQLHNFSLPEEDTKLKIPLIHRALQLAQRPVSLLASPWTSPTWLKTNGAVNGKGSLKGQPGDIYHQTWARYFVKFLDAYAEHKLQFWAVTAENEPSAGLLSGYPFQCLGFTPEHQRDFIARDLGPTLANSTHHNVRLLMLDDQRLLLPHWAKVVLTDPEAAKYVHGIAVHWYLDFLAPAKATLGETHRLFPNTMLFASEACVGSKFWEQSVRLGSWDRGMQYSHSIITNLLYHVVGWTDWNLALNPEGGPNWVRNFVDSPIIVDITKDTFYKQPMFYHLGHFSKFIPEGSQRVGLVASQKNDLDAVALMHPDGSAVVVVLNRSSKDVPLTIKDPAVGFLETISPGYSIHTYLWHRQ
modifications: short N-linked oligosaccharide chains with ~3 exposed α-mannosyl residues

How the values were obtained:
[1] = test system: 9 V/null mice; test: GC levels in liver, spleen and lung after weekly enzyme injections; assay type: in vivo, mouse; details: for GC lipid levels in lung: 5 and 15 U/kg/wk; for reduction of GC levels in liver: 15 U/kg/wk (before 8 wks); for decrease of GC in lung (suggested trend): variable; for reduction of GC levels in spleen: all three dosing groups; for reduction of GC levels and storage cell numbers in livers / reduction of GC levels and storage cell numbers in spleens: dose dependent, 5, 15 or 60 U/kg/wk, abstract
Excerpt: (§1) Mice were sacrificed one week after the last injection, and sera and organs were collected for serologic studies, GCase activities, GC levels, and quantification of storage cells. At one week after the last injection, the GCase activities in liver, spleen, and lung had returned to background levels (not shown).
(§2) Mice were anesthetized with isoflurane.
GC levels in liver, lung, and spleen from 9 V/null and WT mice were quantified by LC/MS-MS (Lipidomic Core, University of South Carolina). The GC levels were normalized to protein in the same lysates used for GCase activity and expressed as the percentage change relative to the GC levels of matched samples from saline-injected mice. WT lysates were used as a reference. The Student's t-test was used for statistical comparisons.

[2] = Activation of GCase by BPS in detergent-free system; assay type: biochemical; details: for increase of activity with BPS: BPS 0 to 2 µM, detergent-free; for BPS concentration of maximal activation: in the absence of saposin C
Method: (§3) Activation of Vela and Imig by the negatively charged lipid, BPS, and saposin C was determined in a detergent-free system with varying concentrations of either agent. The activities of both enzymes increased by 5- to 6-fold or 15- to 17-fold with saposin C (0 to 500 nM) or BPS (0 to 2 µM), respectively. […] Similarly, in the absence of saposin C, both enzymes reacted maximal activation with 0.5 µM of BPS. No significant differences were found in these responses (p = 0.5875–0.8473).
(§4) Vela and Imig were compared for kinetic properties as described. Briefly, the standard GCase activity assay contained final concentrations of 50 mM citrate/phosphate, pH 5.5, 0.25% TC, 0.25% TX, and 4 mM 4MU-Glc in 200 µl. The reactions were stopped after incubation (30–60 min, 37°C) using 0.9 M ethylenediamine, pH 11.0 (100 µl). Standard curves for 4-MU fluorescence yield were generated for each assay with Ex/Em 460/515 nm (Molecular Dynamics SpectraMax GeminXS spectrofluorometer). […] For the reversible competitive inhibitors, Ki was calculated from IC50 = Ki (1+ [I]/[Km]). The IC50 or Ki values for various inhibitors (dNM and its derivatives, CBE, CS, IFG, DNPFG) were determined using 4MU-Glc as substrate. Activities with the NBD-GC substrate were as described. Enzyme assays with saposin C (0–500 nM/0.5 µM BPS) and BPS (0–2 µM) were as described, [40]. Saposin C was expressed in E. coli and purified as described. For thermostability assessments, equal amounts of Vela and Imig activities were added to 50 mM citrate/phosphate, pH 7.4, with or without human/mouse serum, and incubated for 0–240 min at 25 or 37°C. The pH optimum profiles were developed using 50 mM citrate/phosphate, pH 4.4–7.2. Protease susceptibilities of the two GCases were evaluated by cathepsin D (1–2 µM) digestion in 25 mM sodium acetate, pH 4.8, 50 mM NaCl, 1.25 mM EDTA, 1.25 mM DTT using 200 ng of Vela or Imig at 37°C for 4 h. All assays were conducted in triplicate and repeated at least twice. The amounts of intact enzyme were determined from density measurements on immunoblots and were compared to the initial amounts. The ratios of intact enzyme with and without cathepsin D were used as indicators of the enzyme's proteolytic susceptibility.

[3] = pH optimum profile of GCase activity; assay type: biochemical; details: profile pH 4.4–7.2
Method: as §4, with “For thermostability assessments, equal amounts of Vela and Imig activities were added to 50 mM citrate/phosphate, pH 7.4, with or without human/mouse serum, and incubated for 0–240 min at 25 or 37°C. The pH optimum profiles were developed using 50 mM citrate/phosphate, pH 4.4–7.2.” left out, “All assays were conducted in triplicate and repeated at least twice.” left out, “The ratios of intact enzyme with and without cathepsin D were used as indicators of the enzyme's proteolytic susceptibility.” left out

[4] = test system: 9 V/null mice; test: Storage cell quantification in liver and lung; assay type: in vivo, mouse; details: for numbers of storage cells in lungs (CD68): any dose
Excerpt: as §1, §2
Duplicate tissue sections were fixed in 10% formalin for hematoxylin and eosin (H&E) staining and in 4% paraformaldehyde-PBS, pH 7.4 for immunohistochemistry with CD68 antibody and examined using a Zeiss microscope equipped with SPOT Advance software (SPOT Diagnostic Instruments, Inc.). […] Mice (n = 6–14) in the Vela-, Imig-, or saline-treated groups were used, and the resultant data were analyzed using the Student's t-test.

[5] = GCase activity assay with NBD-GC substrate; assay type: biochemical; details: mean ± SE, n = 10
Method: as §4, with “For thermostability assessments, equal amounts of Vela and Imig activities were added to 50 mM citrate/phosphate, pH 7.4, with or without human/mouse serum, and incubated for 0–240 min at 25 or 37°C. The pH optimum profiles were developed using 50 mM citrate/phosphate, pH 4.4–7.2.” left out, “All assays were conducted in triplicate and repeated at least twice.” left out, “The ratios of intact enzyme with and without cathepsin D were used as indicators of the enzyme's proteolytic susceptibility.” left out

[6] = pH- and thermostability of enzyme activity in buffer or serum; assay type: physicochemical; details: for irreversible loss of activity by 2 h / loss of activity by 4 h: pH 7.4, citrate/phosphate buffer or mouse or human serum, 37 or 25°C
Method: as §4

[7] = Quantification of functional active sites with single turnover substrate DNPFG; assay type: biochemical; details: for Active sites, 2,4-DNPFG: mole ratio of 2,4-DNP released and enzyme protein, mean ± SE, n = 8
Method: Catalytic activities of Vela and Imig were analyzed with 4MU-Glc and GC substrates. Vela had ∼6–10% reproducibly greater activity compared to Imig (Table 1). The functional active sites of these two enzymes were quantified using the single turnover substrate DNPFG, and consistent with the hydrolytic activity, ∼5–7% more functional active sites were quantified with Vela than with Imig (Table 1).
as §4, with “The ratios of intact enzyme with and without cathepsin D were used as indicators of the enzyme's proteolytic susceptibility.” left out

[8] = test system: 9 V/null mice; test: Injection-related deaths; assay type: in vivo, mouse; details: 60 U/kg once a week for 8 weeks
Method: With additional injections, IgG positivity increased in all dosing groups and several mice died. With the 5 or 15 U/kg/wk doses only a few mice died, whereas with 60 U/kg/wk doses, 9/42 Vela-injected and 20/59 Imig-injected mice died following injections during the 4- to 8-wk period (Table 5). Prior to death, these mice became immobile and their lips/tails became cyanotic. Most mice died within 30 to 60 min post-injection. However, placing treated mice in an oxygen chamber for 20 to 30 min after injection led to the survival of most of the animals. The mice that succumbed were immediately dissected, and sera were analyzed for IgE titers and histology. […] Total serum IgE levels from these mice injected with Vela or Imig were 46.4 to 234.9 ng/ml (n = 3) or 115.8 to 239.6 ng/ml (n = 3), respectively (p = 0.3626). In comparison, saline-injected 9 V/null serum values were 6.8 to 8.8 ng/ml (n = 6) (Fig. 7B).
as §2

[9] = GCase activity assay with 4MU-Glc substrate; assay type: biochemical; details: for GCase activity, 4MU-Glc: mean ± SE; for GCase activity, 4MU-Glc / Km: n = 6
Method: as §4

[10] = molecular target: T1, saposin C (Homo sapiens, UniProt P07602); test: Activation of GCase by saposin C in detergent-free system; assay type: biochemical; details: for saposin C concentration of maximum activation: in the presence of 0.5 µM BPS; for increase of activity with saposin C: saposin C 0 to 500 nM, detergent-free
T1 construct: Saposin C was expressed in E. coli and purified as described [40]; made in house; host or cells: E. coli
T1 sequence (P07602 311-390 limits assumed): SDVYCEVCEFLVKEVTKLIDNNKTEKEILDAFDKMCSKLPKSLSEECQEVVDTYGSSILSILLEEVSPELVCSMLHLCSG
Method: as §3, §4

[11] = 5 or 15 U/kg/wk, week 4 or 8, compared to saline-injected controls

Row | Molecule | GC lipid levels in lung [1] | decrease of GC levels in liver [1, 11] | reduction of GC levels in liver [1] | decrease of GC in lung (suggested trend) ([1]; 60 U/kg/wk, 8 wks) | decrease of GC levels in liver ([1]; 60 U/kg/wk, week 4) | reduction of GC levels in spleen ([1]; 4 wks) | reduction of GC levels in spleen ([1]; 8 wks) | reduction of GC levels and storage cell numbers in livers [1] | reduction of GC levels and storage cell numbers in spleens [1] | increase of activity with BPS [2] | BPS concentration of maximal activation [2] | pH of peak activity [3] | numbers of storage cells in lungs (CD68) [4] | GCase activity, NBD-GC [5] | t1/2 of GCase activity ([6]; 25°C + h-serum) | t1/2 of GCase activity ([6]; 25°C + m-serum) | t1/2 of GCase activity ([6]; 25°C in CP, pH 7.4) | t1/2 of GCase activity ([6]; 37°C + h-serum) | t1/2 of GCase activity ([6]; 37°C + m-serum) | t1/2 of GCase activity ([6]; 37°C in CP, pH 7.4) | other results
1 | B1 | unchanged | 50–70% | ~66% | ~10% | ~85% | 10–15% | 20–30% | 60–95% | 10–30% | 15- to 17 fold | 0.5 µM | 5.4–5.6 | not different from saline control | 1,321,057±67,237 nmole/h/mg | 2.933 ± 0.0978 h | 3.235 ± 0.102 h | 1.977 ± 0.0318 h | 2.117 ± 0.169 h | 2.31 ± 0.0637 h | 1.82 ± 0.0025 h | difference in cellular clearance compared to Imig ([4]; lungs, Gaucher cells, not significant): ~10%; irreversible loss of activity by 2 h [6]: > 50%; loss of activity by 4 h [6]: 70–85%; more functional active sites than Imig ([7]; DNPFG): 5–7%; Active sites, 2,4-DNPFG [7]: 97.4±0.6%; Death (%) of total injected mice ([8]; No-oxygen): 22.6%; Death, number of mice ([8]; No-oxygen): 7; Death (%) of total injected mice ([8]; Oxygen chamber minimum 20 min): 18.2%; Death, number of mice ([8]; Oxygen chamber minimum 20 min): 2; Death (%) of total injected mice ([8]; Total number): 21%; Death, number of mice ([8]; Total number): 9; greater activity compared to Imig ([9]; 4MU-Glc and GC substrates): 6–10%; GCase activity, 4MU-Glc [9]: 1,030,480±2,692 nmole/h/mg; Km [9]: 1590 ± 200 µM; saposin C concentration of maximum activation [10]: 200 nM; increase of activity with saposin C [10]: 5- to 6 fold
2 | B2 | unchanged | 50–70% | ~55% | ~10% | ~70% | 10–15% | 20–30% | 60–95% | 10–30% | 15- to 17 fold | 0.5 µM | 5.4–5.6 | not different from saline control | 1,191,610±56,390 nmole/h/mg | 3.107 ± 0.106 h | 3.587 ± 0.253 h | 2.04 ± 0.129 h | 2.125 ± 0.169 h | 2.455 ± 0.124 h | 1.858 ± 0.0413 h | irreversible loss of activity by 2 h [6]: > 50%; loss of activity by 4 h [6]: 70–85%; Active sites, 2,4-DNPFG [7]: 91.6±2.2%; Death (%) of total injected mice ([8]; No-oxygen): 48.4%; Death, number of mice ([8]; No-oxygen): 15; Death (%) of total injected mice ([8]; Oxygen chamber minimum 20 min): 17.9%; Death, number of mice ([8]; Oxygen chamber minimum 20 min): 5; Death (%) of total injected mice ([8]; Total number): 34%; Death, number of mice ([8]; Total number): 20; GCase activity, 4MU-Glc [9]: 966,000±8,467 nmole/h/mg; Km [9]: 1650 ± 250 µM; saposin C concentration of maximum activation [10]: 200 nM; increase of activity with saposin C [10]: 5- to 6 fold
